The source of these data is the Immune Epitope Database (IEDB).

One assay deals with HLA-A*02:11. Description: IEDB peptide-MHC binding, purified MHC/competitive/fluorescence; filed as Kd, often an IC50 or EC50 that approximates it; ≥ and ≤ were set here for values at or beyond the usual limits of such assays.
The target of another assay is HLA-A*69:01. Described as above.
In the next assay the target is HLA-A*02:01. The description is as above.
In a further assay the target is HLA-A*02:12. The description is as above.
A further assay addresses HLA-A*02:03. The description is as above.
For the next assay, the target named is HLA-C*14:02. In words: IEDB peptide-MHC binding, purified MHC/direct/fluorescence; filed as Kd, often an IC50 or EC50 that approximates it; ≥ and ≤ were set here for values at or beyond the usual limits of such assays. The conditions noted are these: source organism: Yersinia pestis Nepal516.
The target in the next assay is HLA-C*15:02. The description is as above. The conditions noted are these: source organism: Yersinia pestis Nepal516.
The target in another assay is HLA-C*05:01. The assay is described as above.
The next assay has as its target HLA-B*07:02. Description: IEDB peptide-MHC binding, purified MHC/competitive/fluorescence; filed as Kd, often an IC50 or EC50 that approximates it; ≥ and ≤ were set here for values at or beyond the usual limits of such assays. The conditions noted are these: source organism: Yersinia pestis Nepal516.
For the next assay, the target named is HLA-B*51:01. The description is as above.
Another assay has as its target HLA-A*11:01. Description: IEDB peptide-MHC binding, purified MHC/competitive/fluorescence; ≥ and ≤ were set here for values at or beyond the usual limits of such assays. The conditions noted are these: source organism: Zaire ebolavirus.
Assay [1] has as its target HLA-A*03:01. Described as above. The conditions noted are these: source organism: Zaire ebolavirus.
In the next assay the target is HLA-A*24:02. The assay is described as above. The conditions noted are these: source organism: Zaire ebolavirus.
The next assay concerns the target HLA-A*01:01. Described as above. The conditions noted are these: source organism: Zaire ebolavirus.
A further assay concerns the target HLA-A*29:02. In words: IEDB peptide-MHC binding, purified MHC/competitive/fluorescence; filed as Kd, often an IC50 or EC50 that approximates it; ≥ and ≤ were set here for values at or beyond the usual limits of such assays.
Another assay has as its target HLA-A*02:16. Described as above.
Another assay deals with HLA-B*39:01. Described as above.
Another assay concerns the target HLA-A*23:01. The description is as above.
A further assay concerns the target HLA-A*26:01. The assay is described as above.
In another assay the target is HLA-B*27:03. Described as above.
The target in the next assay is HLA-B*18:01. The description is as above.
For assay [2], the target named is HLA-A*03:01. The assay is described as above.
A further assay deals with HLA-B*15:01. The description is as above.
Another assay concerns the target HLA-B*57:01. The description is as above.
A further assay concerns the target HLA-A*24:03. The assay is described as above.
The target of another assay is HLA-B*15:17. The description is as above.
The next assay deals with HLA-B*46:01. Described as above.
The target in a further assay is HLA-A*02:19. The assay is described as above.
In the next assay the target is HLA-B*83:01. Described as above. The conditions noted are these: source organism: Vibrio vulnificus CMCP6.
For a further assay, the target named is HLA-A*68:02. The assay is described as above. The conditions noted are these: source organism: Vibrio vulnificus CMCP6.
Another assay concerns the target HLA-B*45:06. The description is as above. The conditions noted are these: source organism: Vibrio vulnificus CMCP6.
For the next assay, the target named is HLA-B*15:42. The assay is described as above. The conditions noted are these: source organism: Vibrio vulnificus CMCP6.
A further assay deals with HLA-A*02:06. The assay is described as above. The conditions noted are these: source organism: Human immunodeficiency virus 1.
Another assay deals with HLA-A*26:02. The description is as above. The conditions noted are these: source organism: Human immunodeficiency virus 1.
Setting [3] is: source organism: Yersinia pestis Nepal516.
[4] abbreviates: source organism: Salmonella enterica subsp. enterica serovar Typhi.
The mark [5] stands for this setting: source organism: Vibrio vulnificus CMCP6.
[6] abbreviates: source organism: Human immunodeficiency virus 1.

What is called Kd is a measure of binding affinity in units of concentration. A high value points to weaker binding. As for VVPYEPPEV, the Kd with HLA-A*02:11 (source organism: Homo sapiens) is 0.0093 µM; with HLA-A*69:01 (source organism: Homo sapiens), at least 20 µM; with HLA-A*02:01 (source organism: Homo sapiens), 0.0265 µM; with HLA-A*02:12 (source organism: Homo sapiens), 0.161 µM; with HLA-A*02:03 (source organism: Homo sapiens), 1.12 µM.
As for RAMKALSSI, the Kd with HLA-C*14:02 was 0.413 µM; with HLA-C*15:02, 0.017 µM; with HLA-C*05:01 (setting [3]), at least 20 µM; in the assay with HLA-B*07:02 it was 0.0126 µM; with HLA-B*51:01 (setting [3]), 0.253 µM.
For orientation: IC50 means the point on the concentration scale where inhibition reaches its midpoint. Lower therefore signals greater potency in that assay. Take ATDVPSATK: the IC50 with HLA-A*11:01 came out at 2.14 µM; with HLA-A*03:01 [1], 28.7 µM; in the assay with HLA-A*24:02, 64.6 µM; with HLA-A*01:01 it was 12 µM.
NTDEIPELI: the Kd in the assay with HLA-C*05:01 (source organism: Salmonella enterica subsp. enterica serovar Typhi str. CT18) is 0.114 µM; with HLA-A*29:02 (setting [4]), at least 20 µM; with HLA-A*02:11 (setting [4]) it was 0.0031 µM; in the assay with HLA-A*02:16 (setting [4]), at least 20 µM; with HLA-B*39:01 (setting [4]), at least 20 µM; in the assay with HLA-A*23:01 (setting [4]), at least 20 µM. Besides, the Kd with HLA-A*02:01 (setting [4]), with HLA-A*26:01 (setting [4]), in the assay with HLA-B*27:03 (setting [4]), with HLA-A*02:12 (setting [4]), in the assay with HLA-B*18:01 (setting [4]) and with HLA-A*03:01 [2] (setting [4]) was at least 20 µM throughout. The Kd with HLA-A*02:03 (setting [4]), in the assay with HLA-B*51:01 (setting [4]), with HLA-B*15:01 (setting [4]), with HLA-B*57:01 (setting [4]), with HLA-A*24:03 (setting [4]) and in the assay with HLA-B*15:17 (setting [4]) was at least 20 µM throughout. The Kd with HLA-B*46:01 (setting [4]) and with HLA-A*02:19 (setting [4]) was at least 20 µM throughout.
As to LEMNDAPTA, the Kd is at least 20 µM with HLA-A*29:02 (setting [5]); at least 20 µM in the assay with HLA-A*02:11 (setting [5]); at least 20 µM with HLA-A*02:16 (setting [5]); at least 20 µM in the assay with HLA-B*39:01 (setting [5]); at least 20 µM in the assay with HLA-A*69:01 (setting [5]); at least 5 µM with HLA-B*83:01. The Kd with HLA-A*68:02, with HLA-A*23:01 (setting [5]), with HLA-A*02:01 (setting [5]), with HLA-A*26:01 (setting [5]), with HLA-B*27:03 (setting [5]) and with HLA-A*02:12 (setting [5]) was at least 20 µM throughout. For the same sequence, the Kd in the assay with HLA-B*18:01 (setting [5]) is 0.24 µM; with HLA-A*03:01 [2] (setting [5]), at least 20 µM; in the assay with HLA-A*02:03 (setting [5]), at least 20 µM; with HLA-B*51:01 (setting [5]), at least 20 µM; with HLA-B*45:06 it was at least 5 µM; with HLA-B*15:01 (setting [5]) it was at least 20 µM. The Kd in the assay with HLA-B*15:42 was at least 5 µM; with HLA-B*57:01 (setting [5]), at least 20 µM; in the assay with HLA-A*24:03 (setting [5]) it was at least 20 µM; in the assay with HLA-B*15:17 (setting [5]) it was at least 20 µM; with HLA-B*46:01 (setting [5]) it was at least 20 µM; in the assay with HLA-A*02:19 (setting [5]) it was at least 20 µM.
For the sequence LFNTIATLY, the Kd with HLA-A*02:01 (setting [6]) is 1.07 µM; with HLA-A*02:03 (setting [6]), at least 20 µM; with HLA-A*02:06, 1.29 µM; with HLA-B*15:17 (setting [6]), 2.51 µM; with HLA-A*26:02 it was at least 20 µM.
